Test results: US5763593

Target: TATA-binding protein (Saccharomyces cerevisiae (strain ATCC 204508 / S288c) (Baker's yeast)) (UniProt P13393)

“purified yeast NC2 (DRAP1/Dr1) with epitope-tagged (FLAG) NC2α/DRAP1 subunit” was tested, and the amount required for 50% inhibition of in vitro transcription by RNA polymerase II holoenzyme was 0.5 pmol.
